Experiments:
[1] = target: human GPC3 on cells (HepG2 endogenous; CHO-K1 recombinant clones CHOK1-hGPC3.1C3, 2B5, 3E9) (human) (UniProt P51654); assay: FACS on CHOK1-hGPC3.3E9 cells
[2] = target: human GPC3 (Gln25-His559)-His protein (Acro, Cat. No. GP3-H52H4) (human) (UniProt P51654); assay: ELISA; antibody 0.001 nM
[3] = target: human GPC3 on cells (HepG2 endogenous; CHO-K1 recombinant clones CHOK1-hGPC3.1C3, 2B5, 3E9) (human) (UniProt P51654); assay: FACS on CHO-K1-human GPC3 cells
[4] = target: human GPC3 (Gln25-His559)-His protein (Acro, Cat. No. GP3-H52H4) (human) (UniProt P51654); assay: ELISA; antibody 0.1 nM
[5] = target: human GPC3 (Gln25-His559)-His protein (Acro, Cat. No. GP3-H52H4) (human) (UniProt P51654); assay: ELISA; antibody 10 nM
[6] = target: human GPC3 on cells (HepG2 endogenous; CHO-K1 recombinant clones CHOK1-hGPC3.1C3, 2B5, 3E9) (human) (UniProt P51654); assay: FACS on HepG2 cells
[7] = target: mouse GPC3-His protein (Sino Biological, Cat. No. 50989-M08B) (mouse) (UniProt Q8CFZ4); assay: ELISA; antibody 0.01 nM
UniProt Q8CFZ4, sequence (Q8CFZ4 25-558 limits assumed): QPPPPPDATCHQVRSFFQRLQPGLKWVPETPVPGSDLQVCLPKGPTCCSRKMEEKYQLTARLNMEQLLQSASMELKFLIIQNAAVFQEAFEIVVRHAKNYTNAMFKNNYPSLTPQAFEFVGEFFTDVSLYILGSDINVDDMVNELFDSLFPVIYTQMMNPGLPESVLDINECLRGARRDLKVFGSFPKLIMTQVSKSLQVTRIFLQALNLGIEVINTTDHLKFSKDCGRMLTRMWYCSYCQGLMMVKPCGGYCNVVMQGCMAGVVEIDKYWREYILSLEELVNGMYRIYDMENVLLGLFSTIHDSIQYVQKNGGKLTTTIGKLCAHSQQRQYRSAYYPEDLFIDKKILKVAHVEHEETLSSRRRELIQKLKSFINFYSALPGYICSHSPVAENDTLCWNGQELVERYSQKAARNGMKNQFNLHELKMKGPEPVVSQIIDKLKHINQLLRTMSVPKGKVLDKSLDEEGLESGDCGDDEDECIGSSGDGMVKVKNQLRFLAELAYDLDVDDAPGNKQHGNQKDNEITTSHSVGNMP

[8] = target: human GPC3 (Gln25-His559)-His protein (Acro, Cat. No. GP3-H52H4) (human) (UniProt P51654); assay: ELISA; antibody 0.01 nM
[9] = target: monkey GPC3-His protein (Acro, Cat. No. GP3-05225) (monkey) (UniProt A5A6P7); assay: ELISA; antibody 100 nM
UniProt A5A6P7, sequence (A5A6P7 other isoform, or with tags, fused parts or gaps limits assumed): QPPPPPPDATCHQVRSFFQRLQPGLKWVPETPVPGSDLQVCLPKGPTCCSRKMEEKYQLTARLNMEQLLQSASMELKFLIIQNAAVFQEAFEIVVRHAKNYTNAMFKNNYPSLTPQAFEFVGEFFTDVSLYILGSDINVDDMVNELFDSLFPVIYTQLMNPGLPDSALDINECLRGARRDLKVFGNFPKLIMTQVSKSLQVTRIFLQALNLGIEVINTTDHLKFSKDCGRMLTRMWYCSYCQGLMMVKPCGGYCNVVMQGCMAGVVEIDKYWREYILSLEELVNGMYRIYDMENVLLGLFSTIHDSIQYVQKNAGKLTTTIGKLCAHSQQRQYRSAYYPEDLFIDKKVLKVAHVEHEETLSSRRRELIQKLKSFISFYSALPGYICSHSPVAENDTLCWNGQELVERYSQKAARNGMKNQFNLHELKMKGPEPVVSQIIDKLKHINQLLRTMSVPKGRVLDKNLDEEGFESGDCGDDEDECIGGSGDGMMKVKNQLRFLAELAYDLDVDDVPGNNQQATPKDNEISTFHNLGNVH

[10] = target: mouse GPC3-His protein (Sino Biological, Cat. No. 50989-M08B) (mouse) (UniProt Q8CFZ4); assay: ELISA; antibody 100 nM
[11] = target: human GPC3 (Gln25-His559)-His protein (Acro, Cat. No. GP3-H52H4) (human) (UniProt P51654); assay: ELISA; antibody 100 nM
[12] = target: human GPC3 on cells (HepG2 endogenous; CHO-K1 recombinant clones CHOK1-hGPC3.1C3, 2B5, 3E9) (human) (UniProt P51654); assay: FACS on HepG2 cells; remark: listed apart in the source
[13] = target: human GPC3 (Gln25-His559)-His protein (Acro, Cat. No. GP3-H52H4) (human) (UniProt P51654); assay: ELISA; antibody 0.0001 nM
[14] = target: human GPC3 (Gln25-His559)-His protein (Acro, Cat. No. GP3-H52H4) (human) (UniProt P51654); assay: ELISA; antibody 1 nM
[15] = target: monkey GPC3 on HEK293T cells (monkey); assay: FACS on HEK293T-monkey GPC3 cells
monkey GPC3 on HEK293T cells (monkey), sequence (chain, as listed by the source limits assumed): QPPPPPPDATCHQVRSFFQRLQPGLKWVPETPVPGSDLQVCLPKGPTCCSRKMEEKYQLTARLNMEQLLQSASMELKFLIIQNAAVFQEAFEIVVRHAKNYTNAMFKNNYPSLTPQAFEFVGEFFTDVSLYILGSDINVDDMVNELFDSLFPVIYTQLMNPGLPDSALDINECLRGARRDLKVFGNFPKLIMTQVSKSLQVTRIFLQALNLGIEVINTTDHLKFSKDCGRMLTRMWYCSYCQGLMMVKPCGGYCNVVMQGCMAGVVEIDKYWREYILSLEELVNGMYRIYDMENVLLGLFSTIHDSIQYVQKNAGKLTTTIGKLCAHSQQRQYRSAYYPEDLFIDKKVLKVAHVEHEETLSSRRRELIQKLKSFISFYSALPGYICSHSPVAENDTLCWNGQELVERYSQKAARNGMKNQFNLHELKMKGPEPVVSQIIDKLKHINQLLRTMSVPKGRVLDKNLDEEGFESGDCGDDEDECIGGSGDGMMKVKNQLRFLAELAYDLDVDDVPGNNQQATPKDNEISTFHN

[16] = target: human GPC3 on cells (HepG2 endogenous; CHO-K1 recombinant clones CHOK1-hGPC3.1C3, 2B5, 3E9) (human) (UniProt P51654); assay: FACS on CHOK1-hGPC3.1C3 cells
[17] = target: human GPC3 on cells (HepG2 endogenous; CHO-K1 recombinant clones CHOK1-hGPC3.1C3, 2B5, 3E9) (human) (UniProt P51654); assay: FACS on CHOK1-hGPC3.2B5 cells
[18] = target: monkey GPC3-His protein (Acro, Cat. No. GP3-05225) (monkey) (UniProt A5A6P7); assay: ELISA; antibody 0.0001 nM
[19] = target: mouse GPC3-His protein (Sino Biological, Cat. No. 50989-M08B) (mouse) (UniProt Q8CFZ4); assay: ELISA; antibody 0.0001 nM
[20] = target: human GPC3 (Gln25-His559)-His protein (Acro, Cat. No. GP3-H52H4) (human) (UniProt P51654); assay: ELISA; antibody 0.0001 nM; remark: listed apart in the source
[21] = target: monkey GPC3-His protein (Acro, Cat. No. GP3-05225) (monkey) (UniProt A5A6P7); assay: ELISA; antibody 0.001 nM
[22] = target: mouse GPC3-His protein (Sino Biological, Cat. No. 50989-M08B) (mouse) (UniProt Q8CFZ4); assay: ELISA; antibody 0.001 nM
[23] = target: human GPC3 (Gln25-His559)-His protein (Acro, Cat. No. GP3-H52H4) (human) (UniProt P51654); assay: ELISA; antibody 0.001 nM; remark: listed apart in the source
[24] = target: human GPC3 (Gln25-His559)-His protein (Acro, Cat. No. GP3-H52H4) (human) (UniProt P51654); assay: ELISA; antibody 100 nM; remark: listed apart in the source
[25] = target: human GPC3 (Gln25-His559)-His protein (Acro, Cat. No. GP3-H52H4) (human) (UniProt P51654); assay: ELISA; antibody 0.01 nM; remark: listed apart in the source
[26] = target: monkey GPC3-His protein (Acro, Cat. No. GP3-05225) (monkey) (UniProt A5A6P7); assay: ELISA; antibody 1 nM
[27] = target: mouse GPC3-His protein (Sino Biological, Cat. No. 50989-M08B) (mouse) (UniProt Q8CFZ4); assay: ELISA; antibody 1 nM
[28] = target: human GPC3 (Gln25-His559)-His protein (Acro, Cat. No. GP3-H52H4) (human) (UniProt P51654); assay: ELISA; antibody 1 nM; remark: listed apart in the source
[29] = target: monkey GPC3-His protein (Acro, Cat. No. GP3-05225) (monkey) (UniProt A5A6P7); assay: ELISA; antibody 10 nM
[30] = target: mouse GPC3-His protein (Sino Biological, Cat. No. 50989-M08B) (mouse) (UniProt Q8CFZ4); assay: ELISA; antibody 10 nM
[31] = target: human GPC3 (Gln25-His559)-His protein (Acro, Cat. No. GP3-H52H4) (human) (UniProt P51654); assay: ELISA; antibody 10 nM; remark: listed apart in the source
[32] = target: monkey GPC3-His protein (Acro, Cat. No. GP3-05225) (monkey) (UniProt A5A6P7); assay: ELISA; antibody 0.1 nM
[33] = target: human GPC3 (Gln25-His559)-His protein (Acro, Cat. No. GP3-H52H4) (human) (UniProt P51654); assay: ELISA; antibody 0.1 nM; remark: listed apart in the source

- Mean fluorescence density of cells [1]: 19.3
- OD450 [2]: 0.048
- Max MFI [3]: 88
- OD450 [4]: 0.05
- OD450 [5]: 0.1
- Max MFI [6]: 124
- OD450 [7]: 0.052
- OD450 [8]: 0.06
- OD450 [9]: 0.056
- OD450 [10]: 0.105
- OD450 [11]: 0.072
- Max MFI [12]: 155
- OD450 [13]: 0.047
- OD450 [14]: 0.06
- Max MFI [15]: 107
- Mean fluorescence density of cells [16]: 19.3
- Mean fluorescence density of cells [17]: 19.3
- OD450 [18]: 0.048
- OD450 [19]: 0.049
- OD450 [20]: 0.06
- OD450 [21]: 0.044
- OD450 [22]: 0.051
- OD450 [23]: 0.06
- OD450 [24]: 0.44
- OD450 [25]: 0.048
- OD450 [26]: 0.044
- OD450 [27]: 0.05
- OD450 [28]: 0.048
- OD450 [29]: 0.047
- OD450 [30]: 0.055
- OD450 [31]: 0.05
- OD450 [32]: 0.045
- OD450 [33]: 0.06
Substance: human IgG1 (IgG subtype control) (antibody)
